Entries after “also recorded” stand apart in the source; their conditions may differ. Peptide text beside a SMILES is read from it.
Legend:
[1] = tested on: pig stomach submucosa; assay: Submucosal injection in in vivo porcine model, stomach; settings: pH 7.5; for submucosal elevation after injection / submucosal elevation over time compared with saline and MucoUp: 2 mL of 0.1% (w/v) peptide, 0.9% NaCl, pig stomach
Method: An in vivo porcine animal model was used to perform endoscopic mucosal and submucosal dissections as described in Uraoka et al. (2009) Drug Des. Devel. Ther. 2:131-8, incorporated herein by reference. Briefly, 2 mL of select peptide formulations were injected in between the […] in stomach of a pig and the submucosa was dissected using electro-knife. The gross appearance of the injection site and of dissected submucosal tissues at the injection sites were analyzed. […] Therefore, an in vivo porcine model system was used to assess the ability of these compositions to induce submucosal elevation upon injection into gastrointestinal submucosa, and the degree of tissue damage. In this model, submucosal injections with liquid compositions were performed and the morphology of the site of injection analyzed. Submucosal injection with aqueous solutions is used during the excision of lesions from the gastrointestinal tract in order to facilitate removal of the lesion by providing a safety cushion during resection (see, e.g., Kim et al. (2013) World J. Gastroenterol. 19(20): 3069-76, incorporated herein by reference). Here, aqueous pharmaceutical compositions comprising three exemplary self-assembling peptides formulated at pH 7.5: KLNL12 (SEQ ID NO:21), NLKL12 (SEQ ID NO:23) or KIQI13 (SEQ ID NO:29), were compared to an aqueous pharmaceutical composition comprising the previously described RADA16 self-assembling peptide (formulated at pH 2.5), a 0.4% solution of sodium hyaluronate (MucoUp®, Boston Scientific Japan K.K., Tokyo, Japan), and saline, pH 7.5.

[2] = tested on: porcine esophagus mucosa; assay: Submucosal injection in in vivo porcine esophagus; settings: for Appearance of stomach mucosa: pH 7.5
Method: In another embodiment, mucosal aggregation visualized as white precipitate near the injection site was evaluated in an in vivo porcine esophagus.

[3] = Net charge of self-assembling peptides in solution; type: physicochemical; settings: in solution at pH 7.5
From the text: Several exemplary self-assembling peptides described herein (Table 5; SEQ ID NO:21-40) were designed to have a net charge, positive or negative, when formulated at pH 7.5. In contrast, previously-described self-assembling peptides have a net zero charge at the same pH.

[4] = Frequency sweep test (storage modulus) before and after exposure to DMEM; type: physicochemical; settings: 1% (w/v) peptide, pH 7.5
Method: Peptides formulated as aqueous solutions were placed between the plates of a rheometer (DHR-1, TA Instruments, 20 mm plates at a measuring geometry of 500 μm or 40 mm cone and plate at a measuring geometry of 2.0° of cone angle) and frequency stress sweep tests were performed at 0.1 Hz to 10 Hz of frequency with 0.1% of strain; measurements were performed after 2 minutes of relaxation time at 37° C. To do frequency sweep tests after exposure to Dulbecco's Modified Eagle Medium (DMEM), 10 mL of DMEM was added in chamber surrounding the plates, the sample in plates was submerged into the DMEM and the frequency test was performed as described after 20 minutes.
Rheological properties of aqueous pharmaceutical compositions comprising the exemplary self-assembling peptides KLNL12 (SEQ ID NO:21), KIQI13 (SEQ ID NO:29), or NLEL12 (SEQ ID NO:33) were determined by performing a frequency sweep test over storage modulus.
In some embodiments, peptides formulated as aqueous solutions, volume 700 μl, were placed between the plates of a rheometer (DHR-1, TA Instruments, 40 mm cone and plate at a measuring geometry of 2.0° of cone angle) and frequency sweep tests were performed at 0.1 Hz to 10 Hz of frequency with 0.1% of strain; measurements were performed after 2 minutes of relaxation time at 37° C. In some embodiments, frequency sweep tests were performed after exposure to Dulbecco's Modified Eagle Medium (DMEM), where 10 mL of DMEM was added in chamber surrounding the plates, the sample in plates was submerged into the DMEM and the frequency test was performed as described after 20 minutes.

Row | Compound | Net charge at pH 7.5 [3] | further results
1 | CC[C@H](C)[C@H](NC(=O)[C@H](CCC(N)=O)NC(=O)[C@@H](NC(=O)[C@H](CCCCN)NC(=O)[C@@H](NC(=O)[C@H](CCC(N)=O)NC(=O)[C@@H](NC(=O)[C@H](CCCCN)NC(=O)[C@@H](NC(=O)[C@H](CCC(N)=O)NC(=O)[C@@H](NC(=O)[C@H](CCCCN)NC(C)=O)[C@@H](C)CC)[C@@H](C)CC)[C@@H](C)CC)[C@@H](C)CC)[C@@H](C)CC)C(N)=O [KIQI12, Ac-KIQIKIQIKIQI-NH2] (Ac-KIQIKIQIKIQI-NH2) | – | Appearance of stomach mucosa ([1]; 0.1% (w/v) peptide with NaCl 0.9%, 2 mL injected): do not appear to alter submucosal tissue morphology; also recorded: Clear/transparent; Appearance of stomach mucosa ([2]; porcine esophagus, 0.1% (w/v) peptide with NaCl 0.9%): cloudy/aggregation; mucosal aggregation at injection sites ([2]; porcine esophagus, compositions of Table 9): Mucosal aggregation was observed
2 | CC(=O)N[C@@H](CC(C)C)C(=O)N[C@@H](CCC(=O)O)C(=O)N[C@@H](CC(C)C)C(=O)N[C@@H](CCC(N)=O)C(=O)N[C@@H](CC(C)C)C(=O)N[C@@H](CCC(=O)O)C(=O)N[C@@H](CC(C)C)C(=O)N[C@@H](CCC(N)=O)C(=O)N[C@@H](CC(C)C)C(=O)N[C@@H](CCC(=O)O)C(=O)N[C@@H](CC(C)C)C(=O)N[C@@H](CCC(N)=O)C(N)=O [LELQ12, Ac-LELQLELQLELQ-NH2] (Ac-LELQLELQLELQ-NH2) | – | mucosal aggregation at injection sites ([2]; pig, in vivo): mucosal aggregation was not observed; Appearance of stomach mucosa ([2]; pig, in vivo): clear/transparent
3 | Ac-IKIQIKIQIKIQI-NH2 [IKIQ13] | +3 | –
4 | Ac-INIKINIKINIKI-NH2 [INIK13] | +3 | –
5 | Ac-IQIKIQIKIQIK-NH2 [IQIK12] | +3 | –
6 | Ac-KANAKANAKANA-NH2 [KANA12] | +3 | –
7 | Ac-KIQIKIQIKIQIK-NH2 [KIQI13] | +4 | submucosal elevation after injection [1]: resulted in submucosal elevation; submucosal elevation over time compared with saline and MucoUp [1]: better submucosal elevation than saline and MucoUp®; rheological properties (mechanical strength) before and after exposure to DMEM ([4]; 0.9% NaCl): increased after DMEM treatment; rheological properties (mechanical strength) before and after exposure to DMEM [4]: increased after DMEM treatment
8 | Ac-KLNLKLNLKLNLK-NH2 [KLNL13] | +4 | –
9 | Ac-KLNLKLNLKLNLKLNLK-NH2 [KLNL17] | +5 | –
10 | Ac-KLTLKLTLKLTL-NH2 [KLTL12] | +3 | –
11 | Ac-KVNVKVNVKVNV-NH2 [KVNV12] | +3 | –
12 | Ac-LKLNLKLNLKLN-NH2 [LKLN12] | +3 | –
13 | Ac-LNLKLNLKLNLK-NH2 [LNLK12] | +3 | –
14 | Ac-NLDLNLDLNLDL-NH2 [NLDL12] | −3 | –
15 | Ac-NLKLNLKLNLKL-NH2 [NLKL12] | +3 | submucosal elevation after injection [1]: resulted in submucosal elevation; submucosal elevation over time compared with saline and MucoUp [1]: better submucosal elevation than saline and MucoUp®
16 | Ac-QIKIQIKIQIKIQ-NH2 [QIKI13] | +3 | –
17 | Ac-RANARANARANARANA-NH2 [RANA16] | +4 | –

From patent US12611439B2, “Ionic self-assembling peptides” (3-D MATRIX, LTD., priority 2018, dated 2026)
